One data set deals with Asp52 (UniProt position 70, TDGSTDYGILQ). The experiment in a line: NMR. Particulars: not stated (presumably free, folded enzyme); cited from earlier work.
Another data set has as its target Glu35 (UniProt position 53, CAAKFESNFNT). The experiment in a line: NMR. The conditions noted are these: not stated (presumably free, folded enzyme); cited from earlier work.
The target of the next data set is T1, Slt35 (Escherichia coli, UniProt P41052).
T1 construct: gene mltB; N-terminal His-tag
T1 sequence (P41052 19-361): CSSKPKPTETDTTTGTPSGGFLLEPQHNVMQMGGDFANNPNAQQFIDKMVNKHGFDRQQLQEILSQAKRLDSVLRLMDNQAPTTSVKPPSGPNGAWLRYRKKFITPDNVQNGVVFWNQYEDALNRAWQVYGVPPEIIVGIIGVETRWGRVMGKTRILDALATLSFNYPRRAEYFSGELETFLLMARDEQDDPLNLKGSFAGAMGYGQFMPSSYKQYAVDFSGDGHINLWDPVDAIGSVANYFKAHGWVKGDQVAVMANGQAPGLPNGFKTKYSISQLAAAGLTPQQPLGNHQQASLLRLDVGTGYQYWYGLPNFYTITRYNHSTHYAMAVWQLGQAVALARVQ
The data set is described as follows: intrinsic fluorescence quenching titration (also turbidimetric inhibition assay, IC50 […]). The data set is classed as binding.

Another data set deals with T2, hen egg white lysozyme (Gallus gallus, UniProt P00698).
T2 construct: gene LYZ
T2 sequence (P00698 19-147): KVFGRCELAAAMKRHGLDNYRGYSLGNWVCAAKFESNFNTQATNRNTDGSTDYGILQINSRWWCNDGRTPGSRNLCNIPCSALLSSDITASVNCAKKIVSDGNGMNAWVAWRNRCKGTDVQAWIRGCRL
The data set is described as above. In kind it is binding.

As to “Hen egg white lysozyme (lysozyme C) (Gallus gallus)”, the pKa with Asp52 is reported as 3.7; in the data set with Glu35, 6.2.
With `Nc1ccc2nc3ccc(N)cc3[s+]c2c1` [thionine acetate], the figures for the dissociation constant (Kd) at Slt35 and on hen egg white lysozyme were 17.1 ± 1 µM and 18.6 ± 1.2 µM, respectively.

The pKa is the negative logarithm of the acid dissociation constant. For orientation: Kd means the equilibrium constant for the complex coming apart. Lower therefore signals a tighter complex.

Source of the values: article PMC8307938, “The Lysozyme Inhibitor Thionine Acetate Is Also an Inhibitor of the Soluble Lytic Transglycosylase Slt35 from Escherichia coli” (Molecules, 2021).
